# In patent US20250248376A1 (University of Texas, published 2025):
# T1: Contactin (mouse Cntn1) (mouse, UniProt P12960 21-1001)
# T1 construct: whole, on cells; One entry covers both endogenous spinal cord Contactin and Contactin transfected into HEK cells; It was immunoprecipitated from lysates with anti-Contactin antibodies; also called Contactin/F3
# T1 sequence (looked up): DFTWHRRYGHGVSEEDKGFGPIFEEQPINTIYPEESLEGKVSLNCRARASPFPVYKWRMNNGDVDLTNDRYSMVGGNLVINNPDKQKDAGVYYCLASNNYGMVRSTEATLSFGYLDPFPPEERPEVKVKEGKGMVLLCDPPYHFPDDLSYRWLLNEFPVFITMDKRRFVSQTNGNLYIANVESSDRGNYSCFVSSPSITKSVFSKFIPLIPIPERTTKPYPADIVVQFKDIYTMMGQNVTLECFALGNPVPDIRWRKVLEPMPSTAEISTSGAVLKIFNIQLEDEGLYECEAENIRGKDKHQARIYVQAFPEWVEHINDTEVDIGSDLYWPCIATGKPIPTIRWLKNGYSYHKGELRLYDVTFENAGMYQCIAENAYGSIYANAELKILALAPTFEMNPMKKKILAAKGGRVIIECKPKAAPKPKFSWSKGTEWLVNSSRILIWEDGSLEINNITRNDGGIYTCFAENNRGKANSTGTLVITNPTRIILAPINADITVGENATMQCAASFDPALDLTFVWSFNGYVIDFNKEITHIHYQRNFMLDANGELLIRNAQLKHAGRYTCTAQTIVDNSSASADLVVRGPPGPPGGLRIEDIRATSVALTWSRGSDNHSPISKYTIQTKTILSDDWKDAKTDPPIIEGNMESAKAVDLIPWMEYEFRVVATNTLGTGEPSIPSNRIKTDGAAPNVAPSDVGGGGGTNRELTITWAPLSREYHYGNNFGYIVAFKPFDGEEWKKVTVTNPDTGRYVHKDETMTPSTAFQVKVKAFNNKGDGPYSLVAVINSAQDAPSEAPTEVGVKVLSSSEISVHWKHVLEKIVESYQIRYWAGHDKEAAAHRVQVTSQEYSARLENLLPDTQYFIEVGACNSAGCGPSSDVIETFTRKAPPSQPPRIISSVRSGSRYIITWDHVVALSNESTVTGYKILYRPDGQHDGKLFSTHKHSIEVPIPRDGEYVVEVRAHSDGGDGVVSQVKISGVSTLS
# Biological target: T1, Contactin (mouse Cntn1)
# Assay: co-IP with anti-Contactin antibodies from lysates of HEK cells co-transfected with Contactin, immunoblot for Cntnap1 (FIG. 17J)
# Excerpt: After confirming the mutations, the wild-type Cntnap1, Cntnap1C^C324R or […] cDNAs and Contactin cDNA (MG50933-CF, SinoBiological) were co-transfected into HEK cells. Contactin surface expression was examined by immunostaining of live, non-permeabilized HEK cells followed by fixation and permeabilization and immunostaining with an anti-Cntnap1 antibody to detect the expression of Cntnap1. The wild-type Cntnap1 protein was readily localized at the cell surface of the HEK cells (FIGS. 17Ga, c), however, the surface localization of Cntnap1^C324R (FIGS. 17Ha, c), and Cntnap1^R765c (FIGS. 17Ia, c) mutant proteins was strongly affected. […] The Cntnap1 protein expression was mostly cytosolic in both Cntnap1^C324R or Cntnap1^R765C transfected HEK cells as was the Contactin localization. […] IP of cell lysates from HEK cells that co-expressed the wild-type Cntnap1, Cntnap1^C324R and Cntnap1^R765C proteins and Contactin was also carried out. The expression levels of these proteins were similar in HEK cells transfected with respective expression constructs (FIG. 17J, input).
row,"level of Cntnap1 co-immunoprecipitated with Contactin, relative to wild-type Cntnap1",Binder
1,60%,"Cntnap1^C324R mutant expressed in HEK cells (site-directed mutant of pCMV-Cntnap1^Flag) (receptor, Co-transfected with Contactin cDNA; the co-IP was done on total cell lysates; also called Mouse Cntnap1^C324R clone; not shown: Flag tag inherited from pCMV-Cntnap1^Flag) WGYYGCNEELVGPLYARSLGASSYYGLFTTARFARLHGISGWSPRIGDPNPWLQIDLMKKHRIRAVATQGAFNSWDWVTRYMLLYGDRVDSWTPFYQKGHNATFFGNVNDSAVVRHDLHYHFTARYIRIVPLAWNPRGKIGLRLGIYGCPYTSSILYFDGDDAISYRFQRGASQSLWDVFAFSFKTEEKDGLLLHTEGSQGDYVTLELQGAHLLLHMSLGSSPIQPRPGHTTVSLGGVLNDLSWHYVRVDRYGRDANFTLDGYAHHFVLNGDFERLNLENEIFIGGLVGAARKNLAYRHNFRGRIENVIYNRINIAEMAVMRHSRITFEGNVAFRCLDPVPHPINFGGPHNFVQVPGFPRRGRLAVSFRFRTWDLTGLLLFSHLGDGLGHVELMLSEGQVNVSIAQTGRKKLQFAAGYRLNDGFWHEVNFVAQENHAVISIDDVEGAEVRVSYPLLIRTGTSYFFGGCPKPASRWGCHSNQTAFHGCMELLKVDGQLVNLTLVEFRKLGYFAEVLFDTCGITDRCSPNMCEHDGRCYQSWDDFICYCELTGYKGVTCHEPLYKESCEAYRLSGKYSGNYTIDPDGSGPLKPFVVYCDIRENRAWTVVRHDRLWTTRVTGSSMDRPFLGAIQYWNASWEEVSALANASQHCEQWIEFSCYNSRLLNTAGGYPYSFWIGRNEEQHFYWGGSQPGIQRCACGLDQSCVDPALHCNCDADQPQWRTDKGLLTFVDHLPVTQVVVGDTNRSNSEAQFFLRPLRCYGDRNSWNTISFHTGAALRFPPIRANHSLDVSFYFRTSAPSGVFLENMGGPFCRWRRPYVRVELNTSRDVVFAFDIGNGDENLTVHSDDFEFNDDEWHLVRAEINVKQARLRVDHRPWVLRPMPLQTYIWLVYDQPLYVGSAELKRRPFVGCLRAMRLNGVTLNLEGRANASEGTFPNCTGHCTHPRFPCFHGGRCVERYSYYTCDCDLTAFDGPYCNHDIGGFFETGTWMRYNLQSALRSAAREFSHMLSRPVPGYEPGYVPGYDTPGYVPGYHGPGYRLPEYPRPGRPVPGYRGPVYNVTGEEVSFSFSTNSAPAVLLYVSSFVRDYMAVLIKEDGTLQLRYQLGTSPYVYQLTTRPVTDGQPHSVNITRVYRNLFIQVDYFPLTEQKFSLLVDSQLDSPKALYLGRVMETGVIDPEIQRYNTPGFSGCLSGVRFNNVAPLKTHFRTPRPMTAELAEAMRVQGELSESNCGAMPRLVSEVPPELDPWYLPPDFPYYHDDGWIAILLGFLVAFLLLGLVGMLVLFYLQNHRYKGSYHTNEPKATHDSHPGGKAPLPPSGPAQAPAPTPAPTQLPTPAPAPAPAPASGPGPRDQNLPQILEESRSE"
2,10%,"Cntnap1^R765C mutant expressed in HEK cells (site-directed mutant of pCMV-Cntnap1^Flag) (receptor, Co-transfected with Contactin cDNA; the co-IP was done on total cell lysates; also called Mouse Cntnap1^R765C clone; not shown: Flag tag inherited from pCMV-Cntnap1^Flag) WGYYGCNEELVGPLYARSLGASSYYGLFTTARFARLHGISGWSPRIGDPNPWLQIDLMKKHRIRAVATQGAFNSWDWVTRYMLLYGDRVDSWTPFYQKGHNATFFGNVNDSAVVRHDLHYHFTARYIRIVPLAWNPRGKIGLRLGIYGCPYTSSILYFDGDDAISYRFQRGASQSLWDVFAFSFKTEEKDGLLLHTEGSQGDYVTLELQGAHLLLHMSLGSSPIQPRPGHTTVSLGGVLNDLSWHYVRVDRYGRDANFTLDGYAHHFVLNGDFERLNLENEIFIGGLVGAARKNLAYRHNFRGCIENVIYNRINIAEMAVMRHSRITFEGNVAFRCLDPVPHPINFGGPHNFVQVPGFPRRGRLAVSFRFRTWDLTGLLLFSHLGDGLGHVELMLSEGQVNVSIAQTGRKKLQFAAGYRLNDGFWHEVNFVAQENHAVISIDDVEGAEVRVSYPLLIRTGTSYFFGGCPKPASRWGCHSNQTAFHGCMELLKVDGQLVNLTLVEFRKLGYFAEVLFDTCGITDRCSPNMCEHDGRCYQSWDDFICYCELTGYKGVTCHEPLYKESCEAYRLSGKYSGNYTIDPDGSGPLKPFVVYCDIRENRAWTVVRHDRLWTTRVTGSSMDRPFLGAIQYWNASWEEVSALANASQHCEQWIEFSCYNSRLLNTAGGYPYSFWIGRNEEQHFYWGGSQPGIQRCACGLDQSCVDPALHCNCDADQPQWRTDKGLLTFVDHLPVTQVVVGDTNCSNSEAQFFLRPLRCYGDRNSWNTISFHTGAALRFPPIRANHSLDVSFYFRTSAPSGVFLENMGGPFCRWRRPYVRVELNTSRDVVFAFDIGNGDENLTVHSDDFEFNDDEWHLVRAEINVKQARLRVDHRPWVLRPMPLQTYIWLVYDQPLYVGSAELKRRPFVGCLRAMRLNGVTLNLEGRANASEGTFPNCTGHCTHPRFPCFHGGRCVERYSYYTCDCDLTAFDGPYCNHDIGGFFETGTWMRYNLQSALRSAAREFSHMLSRPVPGYEPGYVPGYDTPGYVPGYHGPGYRLPEYPRPGRPVPGYRGPVYNVTGEEVSFSFSTNSAPAVLLYVSSFVRDYMAVLIKEDGTLQLRYQLGTSPYVYQLTTRPVTDGQPHSVNITRVYRNLFIQVDYFPLTEQKFSLLVDSQLDSPKALYLGRVMETGVIDPEIQRYNTPGFSGCLSGVRFNNVAPLKTHFRTPRPMTAELAEAMRVQGELSESNCGAMPRLVSEVPPELDPWYLPPDFPYYHDDGWIAILLGFLVAFLLLGLVGMLVLFYLQNHRYKGSYHTNEPKATHDSHPGGKAPLPPSGPAQAPAPTPAPTQLPTPAPAPAPAPASGPGPRDQNLPQILEESRSE"
